Measured values from PMC8439434.

Legend:
[1] = molecular target: HLA-B*08:01 (human (endogenous in the Steinlin EBV transformed cell line)); assay: radioligand binding; previously validated B*08:01 inhibition of binding assay (ref. 10); radiolabeled probe not named
[2] = molecular target: HLA-C*07:01 purified from the Steinlin EBV transformed homozygous cell line (human (endogenous in the Steinlin EBV transformed cell line)); assay: radioligand binding; classical MHC-peptide inhibition of binding assay specific for HLA-C*07:01: purified MHC from the Steinlin line, radiolabeled 3424.0028 as probe, test peptides as inhibitors, anti-HLA Class I B123.2 mAb

“peptide 3424.0028 (…, DNA replication licensing factor MCM5 289-297)” gave a fold lower affinity than in the C*07:01 assay [1] of 1500 fold and an affinity (from inhibition of binding) [2] of 0.21 nM.
